Measurements reported in IntAct's records for PubMed 19182799.

B1: Mitochondrial intermembrane space import and assembly protein 40 (Saccharomyces cerevisiae), P36046 (parent)
chain: MLRNLVVRNACRNRPSIQVARGLCRHQTRRLMASSPQFGRNSNQEKTAGFIMGILSMAGALYFIAPNRKPLFASRKVESDKTAEEELSSGGEQSPENEDDNNSKSDENGDDNDSKNDETEAGPQLGGDKIGASKVAEDGELVVLAEEDNKSSEDKDTDESKVSTKDDEQSNEDNATANNQKDENISSENSEENTSDKTLDNNAGSSEKKDPEHSDDEKSQQGQSDDKTTTEDNNGEEESSKKTVSDSENSAKQSESSDEEKEELRKQEEKQMGPTEEEVQHEGAYNPDTGEINWDCPCLGGMAHGPCGEEFKSAFSCFVYSEAEPKGIDCVEKFQHMQDCFRKYPEHYAEQLKETSDDEEPQDKVKVNTIESAPNVSSAKENAAKKAEQSDVKKEPLNEESKP
partner: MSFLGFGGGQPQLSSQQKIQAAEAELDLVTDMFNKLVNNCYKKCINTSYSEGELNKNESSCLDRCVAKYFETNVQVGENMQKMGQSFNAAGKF
B2: Mitochondrial intermembrane space import and assembly protein 40 (Saccharomyces cerevisiae), P36046 (parent)
chain: B1 chain
partner: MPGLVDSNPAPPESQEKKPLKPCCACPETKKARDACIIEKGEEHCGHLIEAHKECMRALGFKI

Variants of: B1
Settings: with tim10_yeast TIM10, P87108
C296S;C298S was tested, and the “effect of a mutation on the interaction” value was “disrupting interaction”.
In the case of C298S, the “effect of a mutation on the interaction” value is reported as “decreasing interaction”.

Variants of: B2
Settings: with cox17_human COX17, Q14061
In the case of C296S;C298S, the “effect of a mutation on the interaction” value is reported as “disrupting interaction”.
In the case of C298S, the “effect of a mutation on the interaction” value is reported as “decreasing interaction”.
